Source: patent publication US20120108492A1 (REGENTS OF THE UNIVERSITY OF COLORADO, published 2012)

Target: wild-type recombinant EBV gp350 (residues 1-470 of EBV gp350/220, BCCP, myc, hexa-histidine) (Epstein-Barr virus (B95-8); Escherichia …, UniProt P03200 1-470; P0ABD8 70-156)
Test: ELISA, wild-type gp350 on plate, MBP-CR2 SCR1-2 mutant in solution

Sequence of wild-type recombinant EBV gp350 (residues 1-470 of EBV gp350/220, BCCP, myc, hexa-histidine) (P03200 1-470, tags or fused parts left off): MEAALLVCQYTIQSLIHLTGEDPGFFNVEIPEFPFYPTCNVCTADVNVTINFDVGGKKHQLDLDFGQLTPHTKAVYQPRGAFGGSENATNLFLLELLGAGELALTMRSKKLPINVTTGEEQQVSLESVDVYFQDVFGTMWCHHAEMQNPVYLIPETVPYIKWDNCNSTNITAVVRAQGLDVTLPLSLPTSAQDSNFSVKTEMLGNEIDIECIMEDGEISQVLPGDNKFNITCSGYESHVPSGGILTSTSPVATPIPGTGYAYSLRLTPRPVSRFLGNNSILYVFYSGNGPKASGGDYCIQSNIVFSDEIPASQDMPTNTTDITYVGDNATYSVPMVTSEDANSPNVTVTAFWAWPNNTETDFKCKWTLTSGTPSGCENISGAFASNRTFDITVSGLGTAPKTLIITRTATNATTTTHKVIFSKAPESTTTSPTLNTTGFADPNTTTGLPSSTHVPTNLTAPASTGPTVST

B1: MBP-CR2 SCR1-2 K67A (receptor)
chain: ISCGSPPPILNGRISYYSTPIAVGTVIRYSCSGTFRLIGEKSLLCITKDKVDGTWDKPAPKCEYFNAYSSCPEPIVPGGYKIRGSTPYRHGDSVTFACKTNFSMNGNKSVWCQANNMWGPTRLPTCVSVFPLE
notes: not shown: MBP tag encoded by pMAL-p2x and the vector linker between MBP and CR2
- decrease in EBV gp350 binding relative to wild-type: ~20%
